# B1: 2-in-1 DARPin 23 (SEQ ID NO: 92) (designed binder)
# chain: DLGKKLLQAARAGQLDEVRELLKAGADVNAKDSQGRTPLHLAAFAGHLEIVEVLLKAGADVNAKDHAGWTPLHLAAYAGHLEIVEVLVKAGADVNAKDTEGKTPLHIAAWFGHLEIVEVLLKAGADVNAKDKSGQTPLHLAAWAGHLEIVEVLLKAGADVNAKNSRGWTPLHTAAQTGHLEIFEVLLKAGADVNAKNDKRVTPLHLAAALGHLEIVEVLLKAGADVNARDSWGTTPADLAAKYGHQDIAEVLQKAA
# B2: Parent DARPin no 4 (SEQ ID NO: 88) (designed binder)
# chain: DLGKKLLQAARAGQLDEVRELLKAGADVNAKDSQGRTPLHLAAFAGHLEIVEVLLKAGADVNAKDHAGWTPLHLAAYAGHLEIVEVLVKAGADVNAKDTEGKTPLHIAAWFGHLEIVEVLLKAGADVNAQDKSGKTPADLTARAGHQDIAEVLQKAA
# B3: 2-in-1 DARPin 24 (SEQ ID NO: 93) (designed binder)
# chain: DLGKKLLQAARAGQLDEVRELLKAGADVNAKDSQGRTPLHLAAFAGHLEIVEVLLKAGADVNAKDHAGWTPLHLAAYAGHLEIVEVLVKAGADVNAKDTEGKTPLHIAAWFGHLEIVEVLLKAGADVNAKDKSGKTPLHLAARAGHLEIVEVLLKAGADVNAKDNSGQTPLHEAAWAGHLEIVEVLLKAGADVNAKNSRGWTPLHTAAQTGHLEIFEVLLKAGADVNAKNDKRVTPLHLAAALGHLEIVEVLLKAGADVNARDSWGTTPADLAAKYGHQDIAEVLQKAA
# B4: 2-in-1 DARPin 25 (SEQ ID NO: 94) (designed binder)
# chain: DLGKKLLQAARAGQLDEVRELLKAGADVNAKDSQGRTPLHLAAFAGHLEIVEVLLKAGADVNAKDHAGWTPLHLAAYAGHLEIVEVLVKAGADVNAKDTEGKTPLHIAAWFGHLEIVEVLLKAGADVNAKDKSGKTPLHLAARAGHLEIVEVLLKAGADVNAKDNSGQTPLHLAAWAGHLEIVEVLLKAGADVNAKNSRGWTPLHTAAQTGHLEIFEVLLKAGADVNAKNDKRVTPLHLAAALGHLEIVEVLLKAGADVNARDSWGTTPADLAAKYGHQDIAEVLQKAA
# Assays:
# TargetA [1] = assay: ELISA on TargetA, DARPin titrated
# TargetA [2] = assay: SPR, bio-TargetA coated on NAD chip, DARPin 333.33-4.11 nM
Binder,EC50 (read off the curve) (TargetA [1]) [pM],Kd (TargetA [2]) [pM]
B1,1000,24
B2,,160
B3,800,119
B4,700,18

# Source: patent US20250042957A1
